Test [1] concerns the target T1, human CD40-Fc protein (human, biotinylated (sites not given) in the capture ELISA and the benchmark blocking ELISA; not biotinylated in the ligand blocking ELISA).
T1 construct: also called biotinylated human CD40-Fc
Briefly: capture ELISA: antibody captured on coated goat anti-human IgG F(ab')2, biotinylated human CD40-Fc 1.15 nM, streptavidin-HRP, OD(450-630). As for the experimental part: (§1) The plate was washed once with a washing buffer (PBS+0.05% v/v of Tween-20, PBST) and then blocked with 200 μL/well blocking buffer (PBST containing 5% w/v of skim milk) for 2 h at 37° C. The plate was washed 4 times, and the anti-CD40 antibody of the present application, BM1, BM2, and a negative control hIgG (human immunoglobulin for intravenous injection (pH 4), Hualan Biological Engineering Inc.) serially 5-fold diluted from 66.7 nM in a PBST containing 2.5% w/v of skim milk was added at 100 μL per well. The plate was incubated for 40 min at 37° C. and washed 4 times. A biotinylated human CD40-Fc protein (amino acid residues 21-193 of SEQ ID NO: 30 linked to the N terminus of amino acid residues 99-330 of SEQ ID NO: 28, dissolved in PBST containing 2.5% w/v of skim milk at a concentration of 1.15 nM) was added at 100 μL/well to a 96-well plate coated with the anti-CD40 antibody. The plate was incubated at 37° C. for 40 min and washed 4 times. An HRP-labeled streptavidin (diluted at 1:10000 in PBST, Jackson Immuno Research, Cat. No. 016-030-084) was added at 100 μL/well, and the plate was incubated at 37° C. for another 40 min. After the last wash, 100 μL/well of ELISA substrate TMB (Innoreagents, Cat. No. TMB-S-002) was added and the plate was incubated at room temperature. After 3-10 min, the reaction was stopped by adding 1 M H₂SO₄ at 50 µL/well, and the absorbance of each well was read on a microplate reader using the dual wavelength mode (TMB detection wavelength: 450 nm, reference wavelength: 630 nm). Curves of OD(450-630) values vs. antibody concentration were plotted. Data were analyzed using Graphpad Prism software, and EC₅₀ values were obtained.

For test [2], the target named is T1, human CD40-Fc protein. The description is as above. As for the experimental part: as §1
The source holds these as a separate data set.

Test [3] addresses T2, recombinant human CD40-his (Acro biosystems, Cat. No. CD0-H5228) (human, UniProt P25942 21-193).
T2 construct: Bought protein; also called human CD40-his protein; not shown: His tag
In words: BLI (Octet RED 96), antibody captured from cell supernatant on AHC sensor, human CD40-his as analyte, 1:1 fit. How it is done: After six days of culture in a shake flask, the cell supernatant containing the humanized antibodies huC1H1-V1 to huC1H1-V4 was harvested and the binding affinity of the antibodies to human CD40 was determined on an Octet system (Fortebio, Octet RED 96) according to the following procedures. Briefly, an anti-human IgG Fc capture (AHC) biosensor (from ForteBio) was pre-soaked in a 10 mM glycine solution (pH 1.5) for 3 s, and then soaked in a running buffer (PBST containing 0.5% w/v of BSA) for 3 s. The pre-soaking and soaking procedures were repeated 3 times. Then, the sensor was soaked in the cell supernatant containing the humanized anti-CD40 antibody, chimeric antibody C1H1 dissolved in HBS-EP⁺ buffer at a concentration of 5 μg/mL, or the benchmark dissolved in HBS-EP⁺ buffer at a concentration of 5 μg/mL for 120 s, and then soaked in the running buffer for 5 min. The new baseline was run in the running buffer for 180 s. The sensor was then soaked for 120 s in human CD40-his protein (Acro biosystems, Cat. No. CD0-H5228) 2-fold serially diluted from 40 nM in the running buffer and for 10 min in the running buffer […]. Finally, the sensor was pre-soaked in a 10 mM glycine solution (pH 1.5) for 3 s, and then soaked in the running buffer for 3 s. The pre-soaking and soaking procedures were repeated 3 times. The association and dissociation curves were fitted to a 1:1 Langmuir binding model using ForteBio Data Analysis 8.1.

Where two headings read alike, the source gives them in different places.

T2 sequence (P25942 21-193 limits assumed): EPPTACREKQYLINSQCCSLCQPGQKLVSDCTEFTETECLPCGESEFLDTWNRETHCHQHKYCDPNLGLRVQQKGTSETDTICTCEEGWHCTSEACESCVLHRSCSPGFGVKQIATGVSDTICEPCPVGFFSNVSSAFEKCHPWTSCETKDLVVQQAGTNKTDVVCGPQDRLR
T1 sequence (chain, as listed by the source limits assumed): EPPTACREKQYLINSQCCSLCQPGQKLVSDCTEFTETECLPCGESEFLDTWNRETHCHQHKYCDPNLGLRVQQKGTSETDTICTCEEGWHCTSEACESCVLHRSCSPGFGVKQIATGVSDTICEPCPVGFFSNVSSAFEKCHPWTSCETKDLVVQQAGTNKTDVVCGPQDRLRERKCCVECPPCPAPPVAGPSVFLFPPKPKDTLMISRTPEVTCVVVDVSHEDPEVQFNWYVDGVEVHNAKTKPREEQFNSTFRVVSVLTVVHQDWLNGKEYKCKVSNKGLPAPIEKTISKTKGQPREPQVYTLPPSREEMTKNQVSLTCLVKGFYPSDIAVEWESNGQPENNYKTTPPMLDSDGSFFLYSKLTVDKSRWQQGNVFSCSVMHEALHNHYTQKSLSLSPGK

B1: chimeric antibody 1D1 (antibody, human IgG1, kappa, V domains shown)
VH: EVQLQQSGPELVKPGASVKMSCKASGYTFTDYVMHWVKQKPGQGLECIGYINPYNDGTTYNEKFKGKATLTSDKSSNAAYLELSSLTSEDSAVYYCARGFLRESWFGYWGQGTLVTVSA
VL: DVLLTQTPLSLPVSLGDQASISCRSSQNIVHSNGNTYLDWYLQKPGQSPKLLIYKVSNRFSGVPDRFSGSGSGTDFTLKISRVEAEDLGVYYCFQGSHVPPTFGGGTKLELKR
notes: Mouse variable regions on human IgG1 / kappa constant regions
Molecule B1 yielded an EC50 with human CD40-Fc protein [1] of 15 nM.

B2: mouse anti-CD40 monoclonal antibody 1D1 (parent of chimeric antibody 1D1) (antibody, V domains shown)
VH: EVQLQQSGPELVKPGASVKMSCKASGYTFTDYVMHWVKQKPGQGLECIGYINPYNDGTTYNEKFKGKATLTSDKSSNAAYLELSSLTSEDSAVYYCARGFLRESWFGYWGQGTLVTVSA
VL: DVLLTQTPLSLPVSLGDQASISCRSSQNIVHSNGNTYLDWYLQKPGQSPKLLIYKVSNRFSGVPDRFSGSGSGTDFTLKISRVEAEDLGVYYCFQGSHVPPTFGGGTKLELK
notes: Parent mouse antibody of chimeric 1D1; also called parent antibody
Take B2: the EC50 with human CD40-Fc protein [1] was 8.7 nM.

B3: chimeric antibody 1A3 (antibody, human IgG1, kappa, V domains shown)
VH: EVQLQQSGPELVKTGASVKISCKASGYSFIGYYLHWVKQSLGKGLEWIGYISCHDGTIIYNQKFKGKATFTLDTSSSTAYMQFSSLTSEDSAVYFCARFLNYYGSNYAMDYWGQGTSVTVSS
VL: DIVMTQSHKFMSTSVGDRVSITCKASQDVGPAVAWYQQKPGQSPKLLIYWASTRHTGVPDRFTGSGYGTDFTLTINNVQSEDLADYFCQQYFTYPLTFGGGTKLEIKR
notes: as for B1
As for B3, the response in the test with human CD40-Fc protein [2] was half-maximal at 1.33 nM (EC50). In other words, the single-digit nanomolar range.

B4: mouse anti-CD40 monoclonal antibody 1A3 (parent of chimeric antibody 1A3) (antibody, V domains shown)
VH: EVQLQQSGPELVKTGASVKISCKASGYSFIGYYLHWVKQSLGKGLEWIGYISCHDGTIIYNQKFKGKATFTLDTSSSTAYMQFSSLTSEDSAVYFCARFLNYYGSNYAMDYWGQGTSVTVSS
VL: DIVMTQSHKFMSTSVGDRVSITCKASQDVGPAVAWYQQKPGQSPKLLIYWASTRHTGVPDRFTGSGYGTDFTLTINNVQSEDLADYFCQQYFTYPLTFGGGTKLEIK
notes: Parent mouse antibody of chimeric 1A3; also called parent antibody
The molecule B4 had an EC50 with human CD40-Fc protein [2] of 0.592 nM.

B5: humanized antibody huC1H1-V3 (antibody, human IgG2, kappa, V domains shown)
VH: EVQLVESGGGLVKPGGSLRLSCAASGFTFSNYGISWVRQAPGKGLEWVASISSGGDNTYYPDNVKGRFTISRDNAKNSLYLQMNSLRAEDTAVYYCARAGEKAMDYWGQGTLVTVSS
VL: EIVLTQSPATLSLSPGERATLSCRASQTINNNLHWYQQKPGQAPRLLIYYASQSISGIPARFSGSGSGTDFTLTISSLEPEDFAVYYCQQFSSWPLTFGGGTKVEIKR
notes: Human IgG2 / kappa; Tested as cell supernatant in the Octet assay
Consider B5, for which, in test [3], the Kd was 5.41 nM, the koff was 0.00283 s⁻¹ and the kon was 523000 M⁻¹ s⁻¹.

B6: humanized antibody huC1H1-V4 (antibody, human IgG2, kappa, V domains shown)
VH: EVQLVESGGGLVKPGGSLRLSCAASGFTFSNYGISWVRQAPGKGLEWVSSISSGGDNTYYPDNVKGRFTISRDNAKNSLYLQMNSLRAEDTAVYYCARAGEKAMDYWGQGTLVTVSS
VL: EIVLTQSPATLSLSPGERATLSCRASQTINNNLHWYQQKPGQAPRLLIYYASQSISGIPARFSGSGSGTDFTLTISSLEPEDFAVYYCQQFSSWPLTFGGGTKVEIKR
notes: as for B5
Take B6: in test [3], the Kd came to 8.66 nM, the koff is 0.00367 s⁻¹ and the kon came to 424000 M⁻¹ s⁻¹.

The record behind these values is patent US20240398942A1 (CHIA TAI TIANQING PHARMACEUTICAL GROUP, published 2024).
